The record followed here is US20250352661A1 (MYTHIC THERAPEUTICS, published 2025).

Assay [1] addresses T1, Human LRRC15 Protein, His Tag (Acro Biosystems) (human, UniProt Q8TF66 22-538, limits assumed).
T1 construct: Bought protein with His tag
T1 sequence (looked up): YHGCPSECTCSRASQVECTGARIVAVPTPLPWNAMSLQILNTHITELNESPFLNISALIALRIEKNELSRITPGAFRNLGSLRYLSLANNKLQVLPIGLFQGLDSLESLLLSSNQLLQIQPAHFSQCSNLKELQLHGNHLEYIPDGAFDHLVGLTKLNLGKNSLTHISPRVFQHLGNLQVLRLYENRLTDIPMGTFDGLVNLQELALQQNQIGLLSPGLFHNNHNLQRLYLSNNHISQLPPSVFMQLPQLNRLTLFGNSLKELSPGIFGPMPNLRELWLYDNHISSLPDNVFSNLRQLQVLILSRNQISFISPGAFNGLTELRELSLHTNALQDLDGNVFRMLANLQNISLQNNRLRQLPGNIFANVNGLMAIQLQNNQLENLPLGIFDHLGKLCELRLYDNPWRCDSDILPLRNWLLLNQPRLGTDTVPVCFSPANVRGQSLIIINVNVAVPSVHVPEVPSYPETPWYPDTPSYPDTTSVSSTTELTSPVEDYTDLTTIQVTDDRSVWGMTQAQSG
In words: BLI; dissociation pH 7.4 black, pH 5.4 grey [2/2); D00014 FIG. 2B (2/2].

Assay [2] has as its target T2, LRRC15 on LRRC15 positive cell lines SAOS2 and G292 (UniProt Q8TF66 22-581, limits assumed).
T2 construct: whole, on cells
T2 sequence (looked up): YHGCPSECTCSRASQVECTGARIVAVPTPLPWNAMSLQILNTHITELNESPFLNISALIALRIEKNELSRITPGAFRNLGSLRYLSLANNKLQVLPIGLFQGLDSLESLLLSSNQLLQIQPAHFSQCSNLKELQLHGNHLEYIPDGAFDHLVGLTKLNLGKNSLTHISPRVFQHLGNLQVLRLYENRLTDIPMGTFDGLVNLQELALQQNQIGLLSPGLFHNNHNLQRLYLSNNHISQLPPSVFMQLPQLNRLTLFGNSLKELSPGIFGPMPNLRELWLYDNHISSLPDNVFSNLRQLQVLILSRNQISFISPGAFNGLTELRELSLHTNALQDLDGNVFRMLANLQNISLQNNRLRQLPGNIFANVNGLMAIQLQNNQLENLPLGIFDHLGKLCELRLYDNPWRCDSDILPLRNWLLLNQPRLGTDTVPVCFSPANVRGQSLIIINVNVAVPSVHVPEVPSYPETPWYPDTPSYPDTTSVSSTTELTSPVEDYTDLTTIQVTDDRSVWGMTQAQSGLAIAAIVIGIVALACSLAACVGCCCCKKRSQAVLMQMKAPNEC
Put plainly: cell binding on SAOS2 cells (LRRC15 positive), pH 7.4. Further details: unit not given here.

B1: MYT7912 (antibody, V domains shown)
VH: QQQLVESGGGLVKPGASLTLTCKASGFSFSGSYWICWVRQAPGKGLEWIGCINGGSLDITYYASWAKGRFTISKASSTTVTLQKTSLTAADTATYFCASHTSYTAYGNFYFNLWGPGTLVTVSS
VL: AQVLTQTASPVSAAVGGTVTINCQSSQSVLNNNWLAWYQQKPGQPPKLLIYDASSLASGVPSRFKGSGSGTQFTLTISDLESDDAATYYCQGEFSCGSADCNAFGGGTEVVVKG
notes: rabbit 24D9 VH D100H; chimeric, human constant regions
On to B1, for which the binding result in assay [1] was “no binding (tested: 50 nM LRRC15)”.

B2: MYT7920 (antibody, V domains shown)
VH: QQQLVESGGGLVKPGASLTLTCKASGFSFSGSYWICWVRQAPGKGLEWIGCINGGSLDITYYASWAKGRFTISKASSTTVTLQKTSLTAADTATYFCASDTSYTAYGHFYFNLWGPGTLVTVSS
VL: AQVLTQTASPVSAAVGGTVTINCQSSQSVLNNNWLAWYQQKPGQPPKLLIYDASSLASGVPSRFKGSGSGTQFTLTISDLESDDAATYYCQGEFSCGSADCNAFGGGTEVVVKG
notes: rabbit 24D9 VH N108H; chimeric, human constant regions
Take B2: the binding result in assay [1] was “no binding (tested: 50 nM LRRC15)”.

B3: MYT7918 (antibody, V domains shown)
VH: QQQLVESGGGLVKPGASLTLTCKASGFSFSGSYWICWVRQAPGKGLEWIGCINGGSLDITYYASWAKGRFTISKASSTTVTLQKTSLTAADTATYFCASDTSYTAHGNFYFNLWGPGTLVTVSS
VL: AQVLTQTASPVSAAVGGTVTINCQSSQSVLNNNWLAWYQQKPGQPPKLLIYDASSLASGVPSRFKGSGSGTQFTLTISDLESDDAATYYCQGEFSCGSADCNAFGGGTEVVVKG
notes: rabbit 24D9 VH Y106H; chimeric, human constant regions
Regarding B3, the binding result in assay [1] is listed as “binds”.

B4: MYT7925 (antibody, V domains shown)
VH: QQQLVESGGGLVKPGASLTLTCKASGFSFSGSYWICWVRQAPGKGLEWIGCINGGSLDITYYASWAKGRFTISKASSTTVTLQKTSLTAADTATYFCASDTSYTAYGNFYFNHWGPGTLVTVSS
VL: AQVLTQTASPVSAAVGGTVTINCQSSQSVLNNNWLAWYQQKPGQPPKLLIYDASSLASGVPSRFKGSGSGTQFTLTISDLESDDAATYYCQGEFSCGSADCNAFGGGTEVVVKG
notes: rabbit 24D9 VH L113H; chimeric, human constant regions
Turning to B4, the binding result in assay [1] is recorded as “binds”.

B5: MYT7915 (antibody, V domains shown)
VH: QQQLVESGGGLVKPGASLTLTCKASGFSFSGSYWICWVRQAPGKGLEWIGCINGGSLDITYYASWAKGRFTISKASSTTVTLQKTSLTAADTATYFCASDTSHTAYGNFYFNLWGPGTLVTVSS
VL: AQVLTQTASPVSAAVGGTVTINCQSSQSVLNNNWLAWYQQKPGQPPKLLIYDASSLASGVPSRFKGSGSGTQFTLTISDLESDDAATYYCQGEFSCGSADCNAFGGGTEVVVKG
notes: rabbit 24D9 VH Y103H; chimeric, human constant regions
Consider B5, for which the binding result in assay [1] is listed as “no binding (tested: 50 nM LRRC15)”.

B6: MYT7921 (antibody, V domains shown)
VH: QQQLVESGGGLVKPGASLTLTCKASGFSFSGSYWICWVRQAPGKGLEWIGCINGGSLDITYYASWAKGRFTISKASSTTVTLQKTSLTAADTATYFCASDTSYTAYGNHYFNLWGPGTLVTVSS
VL: AQVLTQTASPVSAAVGGTVTINCQSSQSVLNNNWLAWYQQKPGQPPKLLIYDASSLASGVPSRFKGSGSGTQFTLTISDLESDDAATYYCQGEFSCGSADCNAFGGGTEVVVKG
notes: rabbit 24D9 VH F109H; chimeric, human constant regions
With B6, the binding result in assay [1] was “no binding (tested: 50 nM LRRC15)”.

B7: MYT7924 (antibody, V domains shown)
VH: QQQLVESGGGLVKPGASLTLTCKASGFSFSGSYWICWVRQAPGKGLEWIGCINGGSLDITYYASWAKGRFTISKASSTTVTLQKTSLTAADTATYFCASDTSYTAYGNFYFHLWGPGTLVTVSS
VL: AQVLTQTASPVSAAVGGTVTINCQSSQSVLNNNWLAWYQQKPGQPPKLLIYDASSLASGVPSRFKGSGSGTQFTLTISDLESDDAATYYCQGEFSCGSADCNAFGGGTEVVVKG
notes: rabbit 24D9 VH N112H; chimeric, human constant regions
As to B7, in assay [1], the binding result is reported as “binds”.

B8: MYT7917 (antibody, V domains shown)
VH: QQQLVESGGGLVKPGASLTLTCKASGFSFSGSYWICWVRQAPGKGLEWIGCINGGSLDITYYASWAKGRFTISKASSTTVTLQKTSLTAADTATYFCASDTSYTHYGNFYFNLWGPGTLVTVSS
VL: AQVLTQTASPVSAAVGGTVTINCQSSQSVLNNNWLAWYQQKPGQPPKLLIYDASSLASGVPSRFKGSGSGTQFTLTISDLESDDAATYYCQGEFSCGSADCNAFGGGTEVVVKG
notes: rabbit 24D9 VH A105H; chimeric, human constant regions
B8: the binding result in assay [1] is on record as “binds”.

B9: MYT7922 (antibody, V domains shown)
VH: QQQLVESGGGLVKPGASLTLTCKASGFSFSGSYWICWVRQAPGKGLEWIGCINGGSLDITYYASWAKGRFTISKASSTTVTLQKTSLTAADTATYFCASDTSYTAYGNFHFNLWGPGTLVTVSS
VL: AQVLTQTASPVSAAVGGTVTINCQSSQSVLNNNWLAWYQQKPGQPPKLLIYDASSLASGVPSRFKGSGSGTQFTLTISDLESDDAATYYCQGEFSCGSADCNAFGGGTEVVVKG
notes: rabbit 24D9 VH Y110H; chimeric, human constant regions
Take B9: in assay [1], the binding result was “binds”.

B10: MYT7923 (antibody, V domains shown)
VH: QQQLVESGGGLVKPGASLTLTCKASGFSFSGSYWICWVRQAPGKGLEWIGCINGGSLDITYYASWAKGRFTISKASSTTVTLQKTSLTAADTATYFCASDTSYTAYGNFYHNLWGPGTLVTVSS
VL: AQVLTQTASPVSAAVGGTVTINCQSSQSVLNNNWLAWYQQKPGQPPKLLIYDASSLASGVPSRFKGSGSGTQFTLTISDLESDDAATYYCQGEFSCGSADCNAFGGGTEVVVKG
notes: rabbit 24D9 VH F111H; chimeric, human constant regions
Take B10: the binding result in assay [1] is given as “binds”.

B11: MYT7916 (antibody, V domains shown)
VH: QQQLVESGGGLVKPGASLTLTCKASGFSFSGSYWICWVRQAPGKGLEWIGCINGGSLDITYYASWAKGRFTISKASSTTVTLQKTSLTAADTATYFCASDTSYHAYGNFYFNLWGPGTLVTVSS
VL: AQVLTQTASPVSAAVGGTVTINCQSSQSVLNNNWLAWYQQKPGQPPKLLIYDASSLASGVPSRFKGSGSGTQFTLTISDLESDDAATYYCQGEFSCGSADCNAFGGGTEVVVKG
notes: rabbit 24D9 VH T104H; chimeric, human constant regions
B11: the binding result in assay [1] is recorded as “binds”.

B12: MYT7914 (antibody, V domains shown)
VH: QQQLVESGGGLVKPGASLTLTCKASGFSFSGSYWICWVRQAPGKGLEWIGCINGGSLDITYYASWAKGRFTISKASSTTVTLQKTSLTAADTATYFCASDTHYTAYGNFYFNLWGPGTLVTVSS
VL: AQVLTQTASPVSAAVGGTVTINCQSSQSVLNNNWLAWYQQKPGQPPKLLIYDASSLASGVPSRFKGSGSGTQFTLTISDLESDDAATYYCQGEFSCGSADCNAFGGGTEVVVKG
notes: rabbit 24D9 VH S102H; chimeric, human constant regions
For B12, the binding result in assay [1] is “binds”.

B13: MYT7919 (antibody, V domains shown)
VH: QQQLVESGGGLVKPGASLTLTCKASGFSFSGSYWICWVRQAPGKGLEWIGCINGGSLDITYYASWAKGRFTISKASSTTVTLQKTSLTAADTATYFCASDTSYTAYHNFYFNLWGPGTLVTVSS
VL: AQVLTQTASPVSAAVGGTVTINCQSSQSVLNNNWLAWYQQKPGQPPKLLIYDASSLASGVPSRFKGSGSGTQFTLTISDLESDDAATYYCQGEFSCGSADCNAFGGGTEVVVKG
notes: rabbit 24D9 VH G107H; chimeric, human constant regions
For the molecule B13, in assay [1], the binding result is given as “no binding (tested: 50 nM LRRC15)”.

B14: MYT7913 (antibody, V domains shown)
VH: QQQLVESGGGLVKPGASLTLTCKASGFSFSGSYWICWVRQAPGKGLEWIGCINGGSLDITYYASWAKGRFTISKASSTTVTLQKTSLTAADTATYFCASDHSYTAYGNFYFNLWGPGTLVTVSS
VL: AQVLTQTASPVSAAVGGTVTINCQSSQSVLNNNWLAWYQQKPGQPPKLLIYDASSLASGVPSRFKGSGSGTQFTLTISDLESDDAATYYCQGEFSCGSADCNAFGGGTEVVVKG
notes: rabbit 24D9 VH T101H; chimeric, human constant regions
B14: in assay [1], the binding result is on record as “binds”.

B15: MYT9776 (antibody, V domains shown)
VH: EVQLVESGGGLVQPGGSLRLSCTASGFSFSGHYWICWVRQAPGKGLEWVGCIHGGSHDITYYASWAKGRFTISRDTSKNTVYLQKTSLRAEDTAVYYCASDTSYTAYGNFYFNLWGQGTLVTVSS
VL: EIVMTQSPSPLSASVGDRVIITCQSSQSVLNNNWLAWYQQKPGKAPKLLIYDASSLASGVPSRFSGSGSGAEFTLTISSLQPDDFATYYCQGEFSCGSADCNAFGQGTKLEIK
notes: LC EIK); also called hu24D9 HC Dev Combos, +LC FR4 EIK
Consider B15, for which the Affinity in assay [2] is 7.32.

B16: MYT8094 (antibody, IgG1, V domains shown)
VH: EVQLVESGGGLVQPGGSLRLSCTASGFSFSSSHWICWVRQAPGKGLEWVGCIYAGSIGSTYYASWAKGRFTISRDTSKNTVYLQMNSLRAEDTAVYYCARAPNDIYNYYFNLWGQGTLVTVSS
VL: EIVMTQSPSTLSASVGDRVIITCQASENIYNYLAWYQQKPGKAPKLLIYYASTLASGVPSRFSGSGSGAEFTLTISSLQPDDFATYYCQSGYVSKSSTFGQGTKLTVL
notes: Humanized 29F1; also called hu29F1 Parental; hu29F1
Regarding B16, the Affinity in assay [2] came to 1.71.
